This sample holds only a part of the variants without activity.
B1: TPR 5TU (parent)
chain: GGAUCUUCUCGAUCUAACAAAAAAGACAAAUCUGCCACAAAGCUUGAGAGCAUCUUCGGAUGCAGAGGCGGCAGCCUUCGGUGGCGCGAUAGCGCCAACGUUCUCAACUAUGACACGCAAAACGCGUGCUCCGUUGAAUGGAGUUUAUCAUG

Variants of: B1
Assay: polymerase ribozyme fitness, log enrichment relative to wild type (log ratio); higher = more active; in vitro selection for triplet polymerase activity
How it was run: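 Each subunit of a heterodimeric triplet polymerase ribozyme was mutagenized into a library by PCR, transcribed, and subjected to one round of in vitro selection, run in triplicate. Libraries were annealed with a biotinylated primer, the partner subunit and triplets, incubated frozen at −7 °C, and extended constructs were gel-excised, captured on streptavidin beads and recovered by RT-PCR. Input and output libraries were sequenced on Illumina, keeping genotypes with ≥10 input reads and ≥1 read per output. Fitness is log base 2 of genotype enrichment divided by wild-type enrichment, from inverse-variance-weighted replicate averages.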

Row | Variant | polymerase ribozyme fitness (log ratio)
1 | A21U C35U U56A C96A A142U | -2.21
2 | A21U U53A A73C C76A G88A C114U U134A | ≤ -4.2
3 | A22U U82C C93G C103G U151G | ≤ -4.2
4 | A21U A29C A30U C32A G86A C99U C118U U134A U145C C149G | ≤ -4.2
5 | A21C A41C C51U C85A | -3.05
6 | A21G C54U C96G C129A | -3.17
7 | A22G A29U G88A G117U G140A | ≤ -4.2
8 | A22C C76A C85A C93U C132A A142U | ≤ -4.2
9 | A21C C57A C93G C99G C118U U139A U144A A150C | ≤ -4.2
10 | A22G A37C G50C A64G G65C G88A A110G | ≤ -4.2
11 | A22U G68U G74A U78A G92A C125A G140U U145G | ≤ -4.2
12 | A21C C85U U102G C118U U144G U151A | ≤ -4.2
13 | A21U G50C C57A A97G | -3.79
14 | A21G A22U U53A C85G C132G | ≤ -4.2
15 | A21G A37G C95U A115G G143C | -3.82
16 | A22C A28U G88U | ≤ -4.2
17 | A22C G65A U104G A107C U127G | ≤ -4.2
18 | A22U A91G | -3.05
19 | A22U G124A | 0.0485
20 | A22C G86A | -1.57
21 | A21U C38U U135C | -3.08

Row | Variant | polymerase ribozyme fitness (log ratio)
22 | A22G U53G C54G U55C A73G A91C C105U C116U U127G U135C | ≤ -4.2
23 | A21C C85G C114U | -3.13
24 | A21U C57G C93A | -2.34
25 | A21C A23C G80A U82G G86U A137G | ≤ -4.2
26 | A21U C38U C63G G84U | -0.36
27 | A22G A41G C51A C76A G94U A97U G141A | ≤ -4.2
28 | A21G C32U G84U A115U U144C | ≤ -4.2
29 | A22G C32G U33G G94A A110C C116G | -4.15
30 | A21C U53A C54G C76G C103G G133U | ≤ -4.2
31 | A22G C85A | -1.12
32 | A22U A28U U104G | ≤ -4.2
33 | A22U G81A C125A | -0.142
34 | A23C A41C C85A U90G G124U U135G | ≤ -4.2
35 | A21G A52G C85U U104G | -0.132
36 | A21C C125A | 0.331
37 | A21C G25C C36G C93G A115U U134A U146A | ≤ -4.2
38 | A21U A73G C79G G84U C149G | ≤ -4.2
39 | A21U G83A | -1.45
40 | A21C C35A C87U | -3.56
41 | A21C C87U A89C A98G G112U | ≤ -4.2
42 | A22C G46A C76U | ≤ -4.2

Row | Variant | polymerase ribozyme fitness (log ratio)
43 | A21C C57U C87G G126C A137C | ≤ -4.2
44 | A21G G84A A137C | -3.28
45 | A21C A47C G58C | 0.582
46 | A21C U31A A49C U61A C93U G133C | ≤ -4.2
47 | A21G U56G G80U G88A C105G A120U C149U | ≤ -4.2
48 | A21C A52G C125A A142U | ≤ -4.2
49 | A22C A40U G81U C93A C99U C116A | -3.08
50 | A22C A52C | -1.04
51 | A22U G70U C87A A119U | ≤ -4.2
52 | A21U A26U A40U | -3.62
53 | A21G C54A | -0.617
54 | A21U U55A U56A G71U | -1.72
55 | A22U G152A | -2.39
56 | A22C A39U U139A | ≤ -4.2
57 | A22U C35A G65A C69A C116U G117C | -3.86
58 | A22U A28U C38G C51U G83C | ≤ -4.2
59 | A22C C57U | -0.765
60 | A21U U33G U61C G62A A66C C72A G80C C85U A107G | ≤ -4.2
61 | A21G G42A C93U A110C | ≤ -4.2
62 | A21U G92C | 0.0736
63 | A21U A30U U33A C54G C87G | ≤ -4.2

Row | Variant | polymerase ribozyme fitness (log ratio)
64 | A23C C27U A47C C57A A73G A91G U101G U134A | ≤ -4.2
65 | A21C C54U | -0.0517
66 | A21C C54A | 0.0369
67 | A21C A24G A28G A29U G71C G83A G124U | ≤ -4.2
68 | A22U A24U G141U | 1.41
69 | A21C U53A C69U C125U | -3.94
70 | A22U A23U G70U C85U A89C A120G U144A | ≤ -4.2
71 | A22U C85G | -1.73
72 | A22G G83C | -0.878
73 | A21C G34U U55A C132G U135A | ≤ -4.2
74 | A21U A23U | ≤ -4.2
75 | A21C A30U U33G A60U C85A | ≤ -4.2
76 | A22G G92C | 0.21
77 | A21C G84U | -1.28
78 | A21U U33G G59C C72G A89C C96A A115C U146C | ≤ -4.2
79 | A22C A98G | -0.486
80 | A21U U101C | 0.366
81 | A21C A41U C85U C95U | -1.34
82 | A22C A24U C54A U77A G84U | ≤ -4.2
83 | A21G A89G C99U | -1.34
